Experimental data reported in patent US7629315B2, “Compositions for blocking the inhibitory effect of human CRP on human leptin” (University of Pittsburgh of the Commonwealth System of …, priority 2005, dated 2009).
Entries after “also recorded” stand apart in the source; their conditions may differ. [ ]: non-standard residue; d: D form.

Assays:
[1] = target: T1, human CRP (Homo sapiens, UniProt P02741); assay: Block of the inhibitory effect of human CRP on leptin-stimulated STAT3 phosphorylation in HEK-293 OB-Rb cells; format: cell-based; details: for restoration of leptin-stimulated STAT3 activation in the presence of human CRP: hexamer at concentrations as high as 0.8 μM, human CRP 8 μg/ml, human leptin 2 nM, 1-hour pre-incubation
T1 construct: purchased CHEMICON International
T1 sequence (P02741 19-224): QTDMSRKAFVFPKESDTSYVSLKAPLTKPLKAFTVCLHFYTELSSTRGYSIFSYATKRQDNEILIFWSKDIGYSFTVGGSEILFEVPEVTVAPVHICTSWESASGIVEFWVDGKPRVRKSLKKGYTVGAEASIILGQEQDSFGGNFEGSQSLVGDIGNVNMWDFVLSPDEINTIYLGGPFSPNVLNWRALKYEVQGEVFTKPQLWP
Procedure: In the in vitro experiment, Peptide-E was pre-incubated with human CRP for 30 minutes before being mixed with human leptin for an additional 45 minutes. The resultant mixture was then added to the HEK-293 cells overexpressing the long form leptin receptors, OB-Rb (FIG. 9). After a 30 minute incubation, the cells were harvested in a protein extraction buffer (Zhao, et al., 1997, PNAS). The signaling of leptin in the cells, measured by its ability to stimulate tyrosine phosphorylation on STAT3 in a western blot assay, was evaluated.
Using a design similar to the in vitro experiment described in Example 5, the hexamer of the '388 patent (SEQ ID NO:3) was pre-incubated with human CRP (8 μg/ml) and human leptin (2 nM) for 1-hour. The resultant mixture was then added to the HEK-293 cells overexpressing the long form leptin receptors, OB-Rb (FIG. 12). After a 30 minute incubation, the cells were harvested in a protein extraction buffer. The signaling of human leptin in the cells, measured by its ability to stimulate tyrosine phosphorylation on STAT3 in a western blot assay, was evaluated.

[2] = system: ob/ob mice; assay: Co-infusion of Peptide E with human CRP and leptin into ob/ob mice; format: in vivo, mouse; details: for restoration of leptin effect on body weight / restoration of leptin effect on food-intake: Pep-E 24 or 48 μg/day/mouse with human CRP 48 and leptin 12 μg/day/mouse
Procedure: FIG. 10. […] Infusion dosages for human CRP and leptin were 48 μg/day/mouse and 12 μg/day/mouse, respectively. The infusion rate for Pep-E (P) was 24 μg/day/mouse (medium dosage, abbreviated “m”) and 48 μg/day/mouse (high dosage, abbreviated “h”). Food-intake (FIGS. 10(A & C)) and body weight (FIGS. 10(B & D)) were monitored daily throughout the infusion. The arrows in A-D indicate the day of surgery. At the end of infusion, blood samples were collected for the measurement of blood-glucose, human CRP, and human leptin. The serum concentrations of human CRP and human leptin were 0.85±0.1 μg/ml and 18 ng±2 ng/ml, respectively. […] The glucose concentration from the mice infused with human CRP and leptin, but NOT with Pep-E was also shown.
In the in vivo experiment, the Peptide E polypeptide was co-infused through mini-osmotic pumps with human CRP and leptin into the ob/ob mice. Food-intake (24 hours) and body weight were followed during the infusion period (FIG. 10A-10D).

[3] = system: leptin-induced tyrosine phosphorylation of STAT3; assay: Leptin-induced STAT3 tyrosine phosphorylation in HEK293 cells expressing OB-Rb (western blot), human leptin; format: cell-based; details: human leptin 2 nM, protein pre-incubated with leptin, HEK293 OB-Rb cells
Procedure: (§1) 2. Signaling Studies: A HEK293 cell line stably expressing the human long-form receptor, OB-Rb (M. Friedman-Einat et al., 2003, Regul. Pept. 111, 77) was serum starved for 2-h before addition of leptin and CRP. Leptin (SEQ ID NO:4), in the presence or absence of C-reactive proteins, was pre-incubated in μ-MEM for 30 minutes at 37° C. before applied to the cells. After a 30-incubation with leptin (SEQ ID NO:4), the cells were harvested in a previously described protein lysis buffer. A. Z. Zhao et al., 1997, Proc. Natl. Acad. Sci. U.S.A. 94, 322. The protein extract was subjected to a western blot assay with an anti-phospho-STAT3 specific antibody (Cell Signaling, Beverly, Mass.). For studies involving the primary hypothalamic neurons, the rat hypothalamus was surgically isolated right after euthanasia, and immediately placed in the DMEM for incubation with leptin in the presence or absence of CRP.
(§2) To determine if the interaction between CRP and leptin influences cellular actions of leptin, we assessed the ability of leptin to stimulate tyrosine phosphorylation of STAT3 and PI3-kinase activity in the presence of CRP in vitro.

[4] = system: mouse leptin-induced STAT3 activation; assay: Leptin-induced STAT3 tyrosine phosphorylation in HEK293 cells expressing OB-Rb, mouse leptin; format: cell-based; details: murine leptin 2 nM
Procedure: as §1, §2

[5] = system: insulin-stimulated PI3-kinase; assay: Insulin-stimulated PI3-kinase activity in differentiated 3T3-L1 adipocytes (specificity control); format: cell-based
[6] = target: mouse leptin (Mus musculus, UniProt P41160); assay: Immunoprecipitation of rat CRP with mouse leptin; format: binding; details: leptin and CRP mixture and rat serum
Chain of mouse leptin (P41160 22-167): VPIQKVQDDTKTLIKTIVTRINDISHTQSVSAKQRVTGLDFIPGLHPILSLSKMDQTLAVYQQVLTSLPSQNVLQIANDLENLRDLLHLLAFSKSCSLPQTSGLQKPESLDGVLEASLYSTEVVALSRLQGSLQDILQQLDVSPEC
Procedure: Direct binding of […] and leptin in an immunoprecipitation assay was determined. Rat CRP was purified from fresh rat serum to >95% employing a previously established affinity-purification protocol. J. Tseng et al., 1988, Mol. Immunol. 25, 679. This purity is very similar to the human CRP preparation obtained from a commercial source (CHEMICON International). The purified human- and rat-CRP proteins were pre-mixed with recombinant human and mouse leptin, respectively, before addition of specific antibodies against human- and mouse-leptin. The concentrations of CRP and leptin in the precipitation reaction were all within the physiological ranges (M. B. Schulze et al., 2004, Diabetes Care 27, 889; T. Kazumi et al., 2003, Metabolism 52, 1113).
In parallel experiments, recombinant leptin was also pre-mixed with human- or rat serum to allow for potential direct interactions prior to immunoprecipitation. The precipitation pellets obtained were subjected to western blot assays with specific anti-CRP antibodies. […] Because of the similarities between rat CRP and human CRP in the binding to leptin and of our main interest in the relevance to human obesity, focus was placed on potential functional effects of human CRP in the subsequent experiments.

**Q.** How did the “restoration of leptin-stimulated STAT3 activation in the presence of human CRP” value [1] turn out when “NH2-S-C-H-L-P-W-COOH (H-SCHLPW-OH; listed as Homo sapiens) [SEQ ID NO:3, 6 amino acid polypeptide reported in U.S. Pat. No. 6,777,388 to Grasso, et al]” was run?
**A.** unable to block the negative effect of human CRP on the signaling capability of human leptin; also recorded: failed to restore leptin-stimulated STAT3 activation

**Q.** For “NH2—W—P—L—H—C—S—COOH (H-[dW][dP][dL][dH][dC][dS]-OH; SMILES CC(C)C[C@@H](NC(=O)[C@H]1CCCN1C(=O)[C@H](N)Cc1c[nH]c2ccccc12)C(=O)N[C@H](Cc1c[nH]cn1)C(=O)N[C@H](CS)C(=O)N[C@H](CO)C(=O)O; listed as Homo sapiens) [SEQ ID NO:5, D-form hex-peptide reported by Grasso, et al]”, which “restoration of leptin-stimulated STAT3 activation in the presence of human CRP” value [1] is on record?
**A.** failed to restore leptin-stimulated STAT3 activation

**Q.** “Peptide E: chemically synthesized polypeptide of 27 amino acids representing a segment of human leptin (SEQ ID NO:2) (LAFSKSCHLPWASGLETLDSLGGVLEA; listed as Homo sapiens)” was tested. Which “STAT phosphorylation by the peptide itself” value ([1]; Peptide-E by itself) did it give?
**A.** did not induce any changes in STAT phosphorylation

**Q.** What about the “restoration of leptin effect on body weight” value [2] of the same molecule?
**A.** could restore both of these functions of human leptin

**Q.** What about the “restoration of leptin effect on food-intake” value [2] of the same molecule?
**A.** could restore both of these functions of human leptin

**Q.** What about the “restoration of leptin effect on body weight” value ([2]; listed as Peptide-E) of the same molecule?
**A.** restored the physiological effects of human leptin

**Q.** And the “restoration of leptin effect on food-intake” value ([2]; listed as Peptide-E)?
**A.** restored the physiological effects of human leptin

**Q.** And the “restoration of leptin effect on blood glucose” value ([2]; end of infusion, high dosage of Pep-E 48 μg/day/mouse with human CRP and leptin)?
**A.** could restore the beneficial effect of human leptin on blood glucose

**Q.** How did the “effect on leptin-induced tyrosine phosphorylation of STAT3” value [3] turn out when “human serum amyloid P-component (SAP): human serum amyloid P-component, control protein [reference compound]” was run?
**A.** did not significantly alter leptin-stimulated phosphorylation of STAT3

B1: rat CRP: rat C-reactive protein purified from fresh rat serum to >95% (protein)
chain: HEDMSKQAFVFPGVSATAYVSLEAESKKPLEAFTVCLYAHADVSRSFSIFSYATKTSFNEILLFWTRGQGFSIAVGGPEILFSASEIPEVPTHICATWESATGIVELWLDGKPRVRKSLQKGYIVGTNASIILGQEQDSYGGGFDANQSLVGDIGDVNMWDFVLSPEQINAVYVGRVFSPNVLNWRALKYETHGDVFIKPQLWPLTDCCES
**Q.** B1 was tested. Which “effect on mouse leptin-induced STAT3 phosphorylation” value [4] did it give?
**A.** attenuate the tyrosine-phosphorylation of STAT3; also recorded: higher concentrations of rat- than human-CRP are required to achieve the equivalent effects; also recorded: Attenuating effects

**Q.** What about the “effect on insulin-stimulated PI3-kinase activity” value [5] of the same molecule?
**A.** did not block insulin-stimulated PI3-kinase

**Q.** And the “direct binding to mouse leptin (immunoprecipitation with anti mouse-leptin, anti-CRP western blot)” value [6]?
**A.** could also bring down rat CRP
